Laboratory results taken from US20100111970A1 (published 2010).

How the values were obtained:
[1] = molecular target: T1, human nerve growth factor (NGF) (human, UniProt P01138 122-241); experiment: BIAcore SPR screening of Fab clones on immobilized human NGF
T1 construct: Immobilized on CM5 chip in BIAcore assays; also called human NGF; hNGF
Description: (§1) Affinities of anti-NGF Fabs and monoclonal antibodies were determined using the BIAcore3000™ surface plasmon resonance (SPR) system (BIAcore, INC, Piscaway N.J.). CM5 chips were activated with N-ethyl-N′-(3-dimethylaminopropyl)-carbodiinide hydrochloride (EDC) and N-hydroxysuccinimide (NHS) according to the supplier's instructions. Human NGF was diluted into 10 mM sodium acetate pH 4.0 and injected over the activated chip at a concentration of 0.005 mg/mL. Using variable flow time across the individual chip channels, two ranges of antigen density were achieved: 100-200 response units (RU) for detailed kinetic studies and 500-600 RU for screening assays. The chip was blocked with ethanolamine. […] HBS-EP buffer (0.01M HEPES, pH 7.4, 0.15 NaCl, 3 mM EDTA, 0.005% Surfactant […]) was used as running buffer for all the BIAcore assays.
(§2) For affinity screening experiments, each library was further paired with the corresponding CDR-grafted light or heavy chain (for example, the H1/H2 library was paired with CDR-grafted light chain), the antibody was expressed, and affinity to human NGF of the individual clones was screened using the BIACORE surface plasmon resonance (SPR) system (BIAcore, Inc. Piscataway, N.J.) according to the manufacturer's instructions and as described above. koff, kₒₙ and KD were determined. […]

[2] = molecular target: T1, human nerve growth factor (NGF); experiment: BIAcore SPR; KD calculated from koff using kon 4e4 M^-1s^-1
Description: as §1, §2

T1 sequence (P01138 122-241 limits assumed): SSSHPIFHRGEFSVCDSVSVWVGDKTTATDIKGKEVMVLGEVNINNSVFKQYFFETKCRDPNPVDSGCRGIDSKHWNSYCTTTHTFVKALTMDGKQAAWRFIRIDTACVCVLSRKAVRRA

koff [1]: 0.00074 s⁻¹ | Kd [2]: 18 nM
B1: light chain library clone L81 (Fab, V domains shown)
VH: QVQLQESGPGLVKPSETLSLTCTVSGFSLIGYDINWIRQPPGKGLEWIGMIWGDGTTDYNSALKSRVTISKDTSKNQFSLKLSSVTAADTAVYYCARGGYYYGTSYYFDYWGQGTLVTVS
VL: DIQMTQSPSSLSASVGDRVTITCRAFQAISNQLNWYQQKPGKAPKLLIYYTSRFHTGVPSRFSGSGSGTDFTFTISSLQPEDIATYYCQQSKTLPYTFGQGTKLEIKR
notes: Substitutions derived by comparing printed CDRs with the 8L2-6D5 control
